{
  "source": "paper PMC9482650",
  "about": "(Nature Communications, 2022)",
  "key": {"[1]": {"molecular_target": "T1, HTLV1 Tax1 PBM (HTLV1, also: biotin attached via linker (not given here))", "T1 chain": "Biotin-SEKHFRETEV-OH", "test": "holdup assay"}, "[2]": {"molecular_target": "T2, RPS6KA1 PBM (human, also: biotin via linker: TTDS, Ahx or Ado-Ado)", "T2 chain": "Biotin-RVRKLPSTTL-OH", "test": "holdup assay; biotinylated PBM peptide saturating streptavidin resin, His6-MBP-PDZ (4 µM) in solution, 15 min at room temperature, no washing, filtration; 50 mM TRIS pH 7.5, 300 mM NaCl, 1 mM TCEP; binding intensity converted to a steady-state Kd given as pKd; PDZ in bacterial lysate (LYSC), single (SAPF) or double (DAPF) affinity purified, which one for a given pair is not given"}, "[3]": {"molecular_target": "T3, p-3 phosphorylated RPS6KA1 PBM (human, not fully specified (N-terminus); also: N-terminal linker between biotin and peptide, type not given here)", "T3 chain": "RVRKLP[pS]TTL-OH", "test": "holdup assay; biotinylated PBM peptide saturating streptavidin resin, His6-MBP-PDZ (4 µM) in solution, 15 min at room temperature, no washing, filtration; 50 mM TRIS pH 7.5, 300 mM NaCl, 1 mM TCEP; binding intensity converted to a steady-state Kd given as pKd; PDZ in bacterial lysate (LYSC), single (SAPF) or double (DAPF) affinity purified, which one for a given pair is not given"}},
  "note": "Square brackets hold non-standard residues; d marks the D form. Ends that are not written are not given here. * marks the point of attachment. Biotin = O=C1N[C@H]2[C@H](CS[C@H]2CCCCC(=O)*)N1; pS = N[C@@H](COP(=O)(O)O)C(=O)O",
  "data": [
    {"binder": "His6-MBP-SYNJ2BP PDZ (domain or fragment, human, UniProt P57105 13-100, looked up) EINLTRGPSGLGFNIVGGTDQQYVSNDSGIYVSRIKENGAAALDGRLQEGDKILSVNGQDLKNLLHQDAVDLFRNAGYAVSLRVQHRL", "values": [
      {"measurement": "pKd", "setting": "[1]", "value": "6.04 pKd (-log10 of Kd in M)"},
      {"measurement": "pKd", "setting": "[2]", "value": "3.82 pKd (-log10 of Kd in M)"},
      {"measurement": "pKd", "setting": "[3]", "value": "4.48 pKd (-log10 of Kd in M)"}
    ]}
  ]
}
